One block for each binder: values may come before it.
How the values were obtained:
Hsc70 D233N = molecular target: T1, Hsc70 D233N (C. elegans, UniProt P09446 1-640, D233N); experiment: AUC; sedimentation velocity with fluorescence detection, 300 nM *BAG-1 with 2 µM Hsc70 variant, 42,000 rpm, 20 °C, 40 mM HEPES/KOH pH 7.5, 150 mM KCl, 1 mM DTT, 5 mM MgCl2; without nucleotide, and with ADP (complex diminished); settings: both partners purified
T1 construct: Hsc70 (HSP-1) of C. elegans, encoded by hsp-1, with the suppressor mutation D233N; Mutation was found in a mutagenesis screen as a suppressor of unc-23(e25); source: expressed from mutated pET28b-Hsc70 (QuickChange PCR), purified (Ni-NTA, ion-exchange, size exclusion chromatography)
T1 sequence (P09446 whole entry D233N): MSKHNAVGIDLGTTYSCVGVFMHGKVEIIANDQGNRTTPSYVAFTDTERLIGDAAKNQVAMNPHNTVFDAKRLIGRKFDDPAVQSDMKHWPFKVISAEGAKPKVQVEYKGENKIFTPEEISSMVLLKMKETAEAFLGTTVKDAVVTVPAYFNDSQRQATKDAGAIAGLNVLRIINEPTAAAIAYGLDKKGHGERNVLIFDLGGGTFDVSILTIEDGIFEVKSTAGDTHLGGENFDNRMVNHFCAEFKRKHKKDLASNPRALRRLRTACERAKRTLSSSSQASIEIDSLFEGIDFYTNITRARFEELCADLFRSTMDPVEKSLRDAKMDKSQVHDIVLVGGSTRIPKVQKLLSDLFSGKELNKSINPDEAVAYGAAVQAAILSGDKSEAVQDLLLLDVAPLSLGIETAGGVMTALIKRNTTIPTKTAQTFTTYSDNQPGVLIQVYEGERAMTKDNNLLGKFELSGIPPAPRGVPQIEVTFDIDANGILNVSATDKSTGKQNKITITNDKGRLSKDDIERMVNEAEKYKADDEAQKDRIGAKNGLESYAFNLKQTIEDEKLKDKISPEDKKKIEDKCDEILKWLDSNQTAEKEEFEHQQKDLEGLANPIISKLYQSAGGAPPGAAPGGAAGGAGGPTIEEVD

Hsc70 A379V = molecular target: T2, Hsc70 A379V (C. elegans, UniProt P09446 1-640, A379V); experiment: as above; settings: both partners purified
T2 construct: Hsc70 (HSP-1) of C. elegans, encoded by hsp-1, with the suppressor mutation A379V; Mutation was found in a mutagenesis screen as a suppressor of unc-23(e25); source: expressed from mutated pET28b-Hsc70 (QuickChange PCR), purified (Ni-NTA, ion-exchange, size exclusion chromatography)
T2 sequence (P09446 whole entry A379V): as the sequence (P09446 whole entry D233N) above, with N233D, A379V counted along it

[1] = molecular target: T3, wild type Hsc70 (nematode Hsc70, HSP-1) (C. elegans, UniProt P09446 1-640); experiment: as above; settings: both partners purified
T3 construct: Hsc70 (HSP-1) of C. elegans, encoded by hsp-1, the sole functional Hsc70-like protein of the nematode; About 70 kDa by ultracentrifugation; also called Hsc70 wild type; CeHsc70; source: expressed from pET28b-Hsc70, purified (Ni-NTA, ion-exchange, size exclusion chromatography)
T3 sequence (P09446 whole entry): as the sequence (P09446 whole entry D233N) above, with N233D counted along it

Hsc70 D384N = molecular target: T4, Hsc70 D384N (C. elegans, UniProt P09446 1-640, D384N); experiment: as above; settings: both partners purified
T4 construct: Hsc70 (HSP-1) of C. elegans, encoded by hsp-1, with the suppressor mutation D384N; Mutation was identified as a suppressor of unc-23(ok1408); source: expressed from mutated pET28b-Hsc70 (QuickChange PCR), purified (Ni-NTA, ion-exchange, size exclusion chromatography)
T4 sequence (P09446 whole entry D384N): as the sequence (P09446 whole entry D233N) above, with N233D, D384N counted along it

[2] = molecular target: the molecule itself; experiment: AUC; sedimentation velocity, UV/VIS optics, 0.5 mg/mL protein; dc/dt plots and UltraScan II analysis; oligomerization status of Hsc70 variants

binding result (Hsc70 D233N): binds
binding result (Hsc70 A379V): binds
binding result [1]: binds
binding result (Hsc70 D384N): binds
B1: BAG-1 (nematode nucleotide exchange factor), fluorescently labelled (natural protein, C. elegans, UniProt O44739 1-210, looked up)
chain: MKVNVSCSSVQTTIDILEENQGEDESILTLGQLRDRIATDNDVDVETMKLLHRGKFLQGADDVSLSTLNFKENDKIIVMGGKNALVDDAGFKMLMQYEKHNLSNLQKAYDLNLRDVADLERGFLEKPKQVEMGKKLEKKVKYFNEEAERHLETLDGMNIITETTPENQAKRNREKRKTLVNGIQTLLNQNDALLRRLQEYQSVLNGDIPE
modifications: ATTO 488 C5-maleimide at its cysteine residue
notes: BAG-1, nucleotide exchange factor of Hsc70 in C. elegans; unlabelled BAG-1 was used in the ATPase assays

B2: Hsc70 S321F (natural protein)
chain: not shown
notes: Hsc70 (HSP-1) of C. elegans, encoded by hsp-1, with the suppressor mutation S321F; forms heterogeneous oligomers; source: expressed from mutated pET28b-Hsc70 (QuickChange PCR), purified (Ni-NTA, ion-exchange, size exclusion chromatography)
binding result [2]: binds
